Consider one substance from patent US7930107.

The target in assay [1] is GST-fused human V158 FcγRIIIa (extracellular region) (human) (UniProt P08637). Description: SPR, GST-FcγRIIIa V158 on chip. A general note: SPR reads the build-up and loss of mass on a sensor chip optically.
For assay [2] the target is unchanged. Description: AlphaScreen competition with biotinylated WT AC10. (In general: Alpha assays give light when donor and acceptor beads are brought close together.)

Sequence of GST-fused human V158 FcγRIIIa (extracellular region) (human) (P08637 17-208 F176V): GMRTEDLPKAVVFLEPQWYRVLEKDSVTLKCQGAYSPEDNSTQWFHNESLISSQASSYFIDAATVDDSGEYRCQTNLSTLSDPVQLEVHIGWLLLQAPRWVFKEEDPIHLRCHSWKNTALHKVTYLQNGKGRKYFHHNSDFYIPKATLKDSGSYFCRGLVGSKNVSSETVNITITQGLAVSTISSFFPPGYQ

A word on the Kd: it is the concentration at which binding is half-saturated. High values mean weaker binding, low ones tighter binding. As a reminder, the IC50 is the point on the concentration scale where inhibition reaches its midpoint. In assay [1], WT AC10 antibody (L0/H0) had a Kd of 18.6 nM. The 50% inhibitory concentration (IC50) in assay [2] was 87.2 nM.
